The target of one data set is SMAD4 (UniProt Q13485 1-552). Put plainly: EMSA.
For a further data set, the target named is T1, IRF1 (UniProt P10914 1-325).
T1 sequence: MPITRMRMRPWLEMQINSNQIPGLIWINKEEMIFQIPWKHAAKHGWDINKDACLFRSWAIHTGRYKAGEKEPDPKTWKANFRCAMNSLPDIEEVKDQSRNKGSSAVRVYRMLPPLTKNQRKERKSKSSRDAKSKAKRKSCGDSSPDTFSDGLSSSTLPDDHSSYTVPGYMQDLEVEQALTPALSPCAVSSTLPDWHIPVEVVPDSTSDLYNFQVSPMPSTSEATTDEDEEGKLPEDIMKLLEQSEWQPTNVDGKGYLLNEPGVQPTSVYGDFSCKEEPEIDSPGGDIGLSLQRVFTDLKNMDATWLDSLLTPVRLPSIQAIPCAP
Put plainly: EMSA.

Chain of SMAD4 (Q13485 whole entry): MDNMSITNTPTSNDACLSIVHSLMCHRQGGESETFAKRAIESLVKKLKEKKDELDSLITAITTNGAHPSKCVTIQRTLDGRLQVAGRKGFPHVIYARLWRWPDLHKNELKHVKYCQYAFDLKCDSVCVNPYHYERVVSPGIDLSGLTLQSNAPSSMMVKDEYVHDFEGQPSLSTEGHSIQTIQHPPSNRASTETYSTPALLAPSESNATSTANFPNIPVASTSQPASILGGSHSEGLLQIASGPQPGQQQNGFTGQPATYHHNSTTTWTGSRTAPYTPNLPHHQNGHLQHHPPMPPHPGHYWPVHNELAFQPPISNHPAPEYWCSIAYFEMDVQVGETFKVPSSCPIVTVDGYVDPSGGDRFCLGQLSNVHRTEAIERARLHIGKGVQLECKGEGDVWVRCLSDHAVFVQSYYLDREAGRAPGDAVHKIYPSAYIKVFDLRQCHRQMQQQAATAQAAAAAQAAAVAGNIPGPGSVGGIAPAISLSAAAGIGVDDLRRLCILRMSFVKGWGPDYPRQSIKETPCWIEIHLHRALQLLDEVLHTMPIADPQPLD

B1: IFI6-ISRE-25 (dsDNA)
DNA 1: GAGAGGGGAAAATGAAACTGCAGAG
DNA 2: CTCTGCAGTTTCATTTTCCCCTCTC
On to B1, for which the binding result is recorded as “no binding” in the data set with SMAD4 and “binds” with IRF1.

B2: HAMP-BRE-25 (dsDNA)
DNA 1: TCTCCCGCCTTTTCGGCGCCACCAC
DNA 2: GTGGTGGCGCCGAAAAGGCGGGAGA
As to B2, the binding result is reported as “binds” in the data set with SMAD4 and “no binding” with IRF1.

For the origin of these results see paper PMC6590058.
